Assay results reported in PMC10857811 (Chem, 2024).
Changes are numbered by the printed parent chain. Names and notes keep the numbering of the source.

B1: Pseudomonas fluorescens esterase variant p2 (T3C) (enzyme)
chain: SCFVAKDGTQIYFKDWGSGKPVLFSHGWLLDADMWEYQMEYLSSRGYRTIAFDRRGFGRSDQPWTGNDYDTFADDIAQLIEHLDLKEVTLVGFSMGGGDVARYIARHGSARVAGLVLLGAVTPLFGQKPDYPQGVPLDVFARFKTELLKDRAQFISDFNAPFYGINKGQVVSQGVQTQTLQIALLASLKATVDCVTAFAETDFRPDMAKIDVPTLVIHGDGDQIVPFETTGKVAAELIKGAELKVYKDAPHGFAVTHAQQLNEDLLAFLKR
B2: Pseudomonas fluorescens esterase variant p4 (T3C and Q174C) (enzyme)
chain: B1 chain with Q173C
B3: Pseudomonas fluorescens esterase variant p3 (Q174C) (enzyme)
chain: B1 chain with C2T, Q173C

Target: the molecule itself
Assay: cross-linking

Protein | stoichiometry N
B1 | 3
B2 | 3
B3 | 3
